Data set [1] in a line: Excitation and emission spectra. In kind it is physicochemical. An excerpt: To evaluate whether digoxygenation of Cy5 alters its fluorescence features, we compared the excitation and emission spectra of Cy5 and compared it with the spectra of the newly generated Dig-Cy5 and with Dig-Cy5 within a complex with bispecific antibodies. […] We conclude that Dig-Cy5 and —complexes can be applied for antibody-mediated targeting and in vivo imaging.

For data set [2], the system named is CD22 positive Raji and Ramos cells. Kind of data set: FACS analysis with <CD22>-<DIG> and DIG-Cy5. In kind it is cell-based. The settings on record: DIG-Cy5 66.4 nM. The protocol: For these analyses we used CD22 positive Raji and Ramos cells and the bispecific <CD22>-<DIG> antibody. 3×10^5 cells per well of a 96-well-plate were incubated with 5 ng/ml of the <CD22>-<DIG> antibody in FACS buffer (PBS containing 5% FCS). After washing the cells were incubated with DIG-Cy5 in a final concentration of 66.4 nM. After another washing step cells were analysed with the FACS canto II (BD Biosciences).
In general terms: A flow cytometer gives signals particle by particle.

Data set [3] deals with IGF1R expressing tumors (H322M cells). Kind of data set: NIRF tumor imaging with Dig-Cy5 complexes, H322M xenograft. The settings on record: 30 min, i.v. The data set is classed as in vivo, mice. The protocol:
To analyze if the specific antigen binding functionality of the antibody-complexes can be utilized to specifically deliver imaging reagents to tumor cells, we performed Near Infrared Fluorescence Imaging Studies (NIRF) in vivo. […] These xenografts were either expressing the antigen Her2 (KPL4 cells) or the antigen IGF1R (H322M cells). Subsequently NIRF imaging was performed by using the Maestro system from CRI. Animals were placed in a measuring chamber and the fluorescence was measured over a defined spectral wavelength array, depending on the dye. Spectral information of each pixel of the obtained image was analyzed by a special software which allows to separate different pre-defined spectra, e.g. autoflourescence and the signal of the dye. Theses separated specific signals were quantified by the Maestro software in order to compare different samples.

Data set [4] concerns H322M (low surface Her2) and KPL4 (high surface Her2) cells. Kind of data set: CytoTox-Glo assay of DIG-peptide-<Her2>-<Dig> complexes. In kind it is cell-based, human. The settings on record: 48 hours. An excerpt:
To analyze whether the <Her2>-<Dig>-Dig-Peptide complexes, and <IGF1R>-<Dig>-Dig-Peptide complexes mediate specific targeting of their payload towards antigen expressing cells, we made use of the fact that the FALLv1 and Fam5b peptides are cytotoxic. […] To measure the number of dead cells, the CytoTox-Glo assay (Promega Madison, Wis.) was used. To analyze the specificity of the targeting, two cell lines were used: H322M which have low levels of surface Her2 and KPL4 which have high levels of surface Her2.
For these assays, H322M cells were seeded at a density of 15.000 cells per well in 96 well plates. The cells were incubated for 24 hours at 37° C., 5% CO2 and 85% humidity in RPMI with 10% FCS, Na+Pyrovate, L-Glutamine and NEAA mix. KPL4 cells were seeded at a density of 7.000 cells per well in 96 well plates. The cells were incubated for 24 hours at 37° C., 5% CO2 and 85% humidity in RPMI with 10% FCS, and L-Glutamine. […] The cells were incubated for further 48 hours. After this period, the cells were treated with the CytoTox-Glo-assay reagent according to the manufacturers instructions. In brief, this assay detects dead cells via the presence of a protease in the medium that cleaves a flurogenic peptide in the reagent. The luminescence of this assay therefore represents dead cells. The 96 well plates were then analyzed in a InfiniteF200 luminescence reader (Tecan Austria, Gröding).

In data set [5] the target is siRNA-DIG (Eg5-siRNA-DIG). As to the kind of experiment: SPR (Biacore) binding to mono-digoxygenated siRNA. The settings on record: 25° C.
Experimental: (§2) For that, binding properties of the recombinant <Dig> derivatives were analyzed by surface plasmon resonance (SPR) technology using a Biacore T100 or Biacore 3000 instrument (GE Healthcare Bio-Sciences AB, Uppsala). […] It allows a continuous real-time monitoring of ligand/analyte bindings and thus the determination of association rate constants (ka), dissociation rate constants (kd), and equilibrium constants (KD) in various assay settings. SPR-technology is based on the measurement of the refractive index close to the surface of a gold coated biosensor chip. Changes in the refractive index indicate mass changes on the surface caused by the interaction of immobilized ligand with analyte injected in solution. If molecules bind to immobilized ligand on the surface the mass increases, in case of dissociation the mass decreases. To perform the binding studies capturing anti-human IgG antibody was immobilized on the surface of a CM5 biosensor chip using amine-coupling chemistry. […]
(§3) Anti-mouse IgG antibody was immobilized on the surface of a CM5 biosensor chip in the same fashion as described above. […] The samples to be analyzed were diluted in HBS-P (10 mM HEPES, pH 7.4, 150 mM NaCl, 0.005% Surfactant P20) and injected at a flow rate of 5 μl/min. […] Signals were detected at a rate of one signal per second.
(§4) The samples to be analyzed were diluted in HBS-P and injected at a flow rate of 5 μl/min. […]
In data set [6] the target is siRNA-(2x)DIG (Eg5-siRNA-(2×)DIG). As to the kind of experiment: SPR (Biacore) binding to bi-digoxygenated siRNA. The settings on record: 25° C. On the technique in general: In SPR one partner is held on a chip, and binding of the other changes the refractive index at the surface.
Experimental: as §2, §3, §4
Data set [7] concerns DIG-Myoglobin. Kind of data set: SPR study, binding to DIG-myoglobin. Here is the method: (§1) For that, binding properties of the recombinant <Dig> derivatives were analyzed by surface plasmon resonance (SPR) technology using a Biacore T100 or Biacore 3000 instrument (GE Healthcare Bio-Sciences AB, Uppsala). This system is well established for the study of molecule interactions. It allows a continuous real-time monitoring of ligand/analyte bindings and thus the determination of association rate constants (ka), dissociation rate constants (kd), and equilibrium constants (KD) in various assay settings. SPR-technology is based on the measurement of the refractive index close to the surface of a gold coated biosensor chip. Changes in the refractive index indicate mass changes on the surface caused by the interaction of immobilized ligand with analyte injected in solution. If molecules bind to immobilized ligand on the surface the mass increases, in case of dissociation the mass decreases. To perform the binding studies capturing anti-human IgG antibody was immobilized on the surface of a CM5 biosensor chip using amine-coupling chemistry. Flow cells were activated with a 1:1 mixture of 0.1 M N-hydroxysuccinimide and 0.1 M 3-(N,N-dimethylamino)propyl-N-ethylcarbodiimide at a flow rate of 5 μl/min. […] A reference control flow cell was treated in the same way but with vehicle buffers only instead of the capturing antibody. Surfaces were blocked with an injection of 1 M ethanolamine/HCl pH 8.5. To compare the binding of the humanized protein variants with that of the murine <Dig> IgG from the original hybridoma 19-11, capturing anti-mouse IgG antibody was immobilized on the surface of a CM5 biosensor chip in the same fashion as described above for the anti-human IgG antibody. To evaluate the functionality of the recombinant <Dig> derivatives, binding of the recombinant hu<Dig> modules, incl. […]

In data set [8] the test system is DIG-siRNA2349. As to the kind of experiment: SPR study, binding to DIG-siRNA2349. The settings on record: analyte DIG-siRNA2349; listed as <DIG>M-19-11. The protocol:
as §1, with “antibody.” for “antibody. Surfaces were blocked with an injection of 1 M ethanolamine/HCl pH 8.5. To compare the binding of the humanized protein variants with that of the murine <Dig> IgG from the original hybridoma 19-11, capturing anti-mouse IgG antibody was immobilized on the surface of a CM5 biosensor chip in the same fashion as described above for the anti-human IgG antibody. To evaluate the functionality of the recombinant <Dig> derivatives, binding of the recombinant hu<Dig> modules, incl.”

The mark [9] stands for this setting: analyte DIG-Myoglobin, listed as <DIG>M-19-11.

From patent publication US9574016B2, “Complex of bi-specific antibody and digoxigenin conjugated to a therapeutic or diagnostic agent” (Hoffmann-La Roche Inc., priority 2009, dated 2017) come the findings set out here.

Several values for one entry are separate records, joined by “and”; a condition that tells them apart may be missing. Equal entries are not always repeated. Non-standard residues stand in square brackets, D forms with d. Residues, ends and D or L forms follow the SMILES beside them. No end group written: not given here. PEG3 = NCCOCCOCCOCCC(=O)O

Consider `CCN1c2ccc(S(=O)(=O)O)cc2C(C)(C)C1/C=C/C=C/C=C1\N(CCCCCC(=O)NCCNC(=O)CO[C@H]2CC[C@@]3(C)[C@H](CC[C@@H]4[C@@H]3C[C@@H](O)[C@]3(C)[C@@H](C5=CC(=O)OC5)CC[C@]43O)C2)c2ccc(S(=O)(=O)O)cc2C1(C)C` (stereo partly drawn) [Dig-Cy5], for which the “Emission wavelength (max.)” value in data set [1] worked out at 670 nm. Also, the “binding to Raji or Ramos cells (FACS)” value in data set [2] is recorded as “hardly any binding”. In addition, the “tumor visualization by NIRF” value in data set [3] is “no tumor specific fluorescence”.

`CC[C@H](C)[C@H](NC(=O)[C@H](CCCCN)NC(=O)[C@H](CCC(=O)O)NC(=O)[C@H](CCCCN)NC(=O)[C@H](CO)NC(=O)[C@H](CCCCN)NC(=O)[C@H](CCCNC(=N)N)NC(=O)[C@H](Cc1ccccc1)NC(=O)[C@H](Cc1ccccc1)NC(=O)[C@H](CC(=O)O)NC(=O)CNC(=O)[C@H](CC(C)C)NC(=O)[C@H](CC(C)C)NC(=O)[C@H](C)NC(=O)[C@H](Cc1ccccc1)NC(=O)[C@@H](N)CSC1CC(=O)N(CCNC(=O)CO[C@H]2CC[C@@]3(C)[C@H](CC[C@@H]4[C@@H]3C[C@@H](O)[C@]3(C)[C@@H](C5=CC(=O)OC5)CC[C@]43O)C2)C1=O)C(=O)NCC(=O)N[C@@H](CCCCN)C(=O)N[C@@H](CCC(=O)O)C(=O)N[C@@H](Cc1ccccc1)C(=O)N[C@@H](CCCCN)C(=O)N[C@@H](CCCNC(=N)N)C(=O)N[C@H](C(=O)N[C@H](C(=O)N[C@@H](CCC(N)=O)C(=O)N[C@@H](CCCNC(=N)N)C(=O)N[C@H](C(=O)N[C@@H](CCCCN)C(=O)N[C@@H](CC(=O)O)C(=O)N[C@@H](Cc1ccccc1)C(=O)N[C@@H](CC(C)C)C(=O)N[C@@H](CCCNC(=N)N)C(=O)N[C@@H](CC(N)=O)C(=O)N[C@@H](CC(C)C)C(=O)N[C@H](C(=O)N1CCC[C@H]1C(=O)N[C@@H](CCCNC(=N)N)C(=O)N[C@H](C(=O)N[C@@H](CCC(=O)O)C(=O)N[C@@H](CO)C(N)=O)[C@@H](C)O)C(C)C)[C@@H](C)CC)C(C)C)[C@@H](C)CC` (stereo partly drawn) [Dig-FALLv1]: the “cytotoxicity when delivered by the <Her2>-<Dig> bispecific antibody, H322M compared to KPL4” value in data set [4] was “more toxic to cells expressing higher levels of surface antigen”.

For `CC[C@H](C)[C@H](NC(=O)[C@H](CCCCN)NC(=O)[C@H](CCC(=O)O)NC(=O)[C@H](CCCCN)NC(=O)[C@H](CO)NC(=O)[C@H](CCCCN)NC(=O)[C@H](CCCNC(=N)N)NC(=O)[C@H](Cc1ccccc1)NC(=O)[C@H](Cc1ccccc1)NC(=O)[C@H](CC(=O)O)NC(=O)CNC(=O)[C@H](CC(C)C)NC(=O)[C@H](CC(C)C)NC(=O)[C@H](C)NC(=O)[C@@H](N)Cc1ccccc1)C(=O)NCC(=O)N[C@@H](CCCCN)C(=O)N[C@@H](CCC(=O)O)C(=O)N[C@@H](Cc1ccccc1)C(=O)N[C@@H](CCCCN)C(=O)N[C@@H](CCCNC(=N)N)C(=O)N[C@H](C(=O)N[C@H](C(=O)N[C@@H](CCC(N)=O)C(=O)N[C@@H](CCCNC(=N)N)C(=O)N[C@H](C(=O)N[C@@H](CCCCN)C(=O)N[C@@H](CC(=O)O)C(=O)N[C@@H](Cc1ccccc1)C(=O)N[C@@H](CC(C)C)C(=O)N[C@@H](CCCNC(=N)N)C(=O)N[C@@H](CC(N)=O)C(=O)N[C@@H](CC(C)C)C(=O)N[C@H](C(=O)N1CCC[C@H]1C(=O)N[C@@H](CCCNC(=N)N)C(=O)N[C@H](C(=O)N[C@@H](CCC(=O)O)C(=O)N[C@@H](CO)C(N)=O)[C@@H](C)O)C(C)C)[C@@H](C)CC)C(C)C)[C@@H](C)CC` [FALLv1], the “cytotoxicity of the <Her2>-<Dig> complex towards antigen expressing target cells compared to non-complexed peptide” value in data set [4] is given as “higher”.

For the molecule `CC[C@H](C)[C@H](NC(=O)[C@H](CCCNC(=N)N)NC(=O)[C@H](Cc1c[nH]cn1)NC(=O)[C@@H](NC(=O)[C@H](CCCCN)NC(=O)[C@H](CCCCN)NC(=O)[C@H](Cc1ccccc1)NC(=O)[C@H](CC(C)C)NC(=O)[C@@H](NC(=O)[C@H](CCCCN)NC(=O)[C@H](CC(C)C)NC(=O)CNC(=O)[C@H](C)NC(=O)CNC(=O)[C@H](CC(C)C)NC(=O)[C@H](CCC(N)=O)NC(=O)[C@H](CCC(N)=O)NC(=O)[C@H](Cc1ccc(O)cc1)NC(=O)[C@H](CCCNC(=N)N)NC(=O)[C@H](Cc1c[nH]cn1)NC(=O)[C@@H](N)CCC(N)=O)C(C)C)[C@@H](C)O)C(=O)N[C@@H](CC(C)C)C(=O)N[C@@H](CCCNC(=N)N)C(=O)N[C@@H](CCCNC(=N)N)C(=O)N[C@@H](CC(C)C)C(=O)N[C@@H](Cc1ccccc1)C(=O)N[C@@H](CC(N)=O)C(=O)N[C@@H](CC(C)C)C(=O)N[C@@H](C)C(=O)N[C@@H](CCCCN)C(=O)O` [Fam5b] (H-QHRYQQLGAGLKVLFKKTHRILRRLFNLAK-OH), in data set [4], the “cytotoxicity of the <Her2>-<Dig> complex towards antigen expressing target cells compared to non-complexed peptide” value was “higher”.

On to Cy5 [reference compound], for which the “Emission wavelength (max.)” value in data set [1] was 670 nm.

Regarding “DIG-Fam5b: digoxigenin conjugate of Fam5b with TEG-spacer and amino-terminal cystein (C[PEG3]QHRYQQLGAGLKVLFKKTHRILRRLFNLAK; also: digoxigenin conjugate, attachment site not given here)”, in data set [4], the “cytotoxicity when delivered by the <Her2>-<Dig> bispecific antibody, H322M compared to KPL4” value was “correlates with the levels of surface antigen”.

B1: murine DIG-IgG 19-11: murine <Dig> IgG1 kappa from mouse hybridoma clone 19-11; VL Seq. ID. NO. 1, VH Seq. ID. NO. 2 (antibody, listed as Mus musculus, V domains shown)
VH: MNFVLSLIFLALILKGVQCEVQLVESGGGLVKPGGSLKLSCAVSGFTFSDYAMSWIRQTPENRLEWVASINIGATYAYYPDSVKGRFTISRDNAKNTLFLQMSSLGSEDTAMYYCARPGSPYEYDKAYYSMAYWGPGTSVTVSS
VL: MSSAQFLGLLLLCFQGTRCDVQMTQSTSSLSASLGDRVTISCRASQDIKNYLNWYQQKPGGTVKLLIYYSSTLLSGVPSRFSGRGSGTDFSLTITNLEREDIATYFCQQSITLPPTFGGGTKLEIK
notes: murine <Dig> IgG1 kappa from mouse hybridoma clone 19-11; ID; NO
As for B1, the results for the Kd in data set [5] and in data set [6] were 269 pM and 17 pM, respectively. In addition, the “affinity to DIG-myoglobin relative to <DIG>-hu2 and disulfide-stabilized <DIG> scFv” value in data set [7] is listed as “about a hundred fold better”. In addition, the ka is 1.75e+06 M⁻¹ s⁻¹ and 2.28e+06 M⁻¹ s⁻¹ in data set [7] (setting [9]); 3.27e+06 M⁻¹ s⁻¹ and 2.26e+06 M⁻¹ s⁻¹ in data set [8]. The kd was 0.000676 s⁻¹ and 0.000675 s⁻¹ in data set [7] (setting [9]); 0.000903 s⁻¹ and 0.000838 s⁻¹ in data set [8].

A word on the Kd: it is a measure of binding affinity in units of concentration. A high value points to lower affinity.
